Reference: PMC10728069

Columns and labels:
His-MoSPAB1ΔSP [1] = target: T1, His-MoSPAB1ΔSP (Magnaporthe oryzae, UniProt G4N0C3 22-298); assay: EMSA; […], buffer not stated; […]; conditions: protein: recombinant; tags: His, ProS2 (pCold-ProS2); label: 5' biotin (both strands); blunt
His-MoSPAB1ΔSP [2] = target: T1, His-MoSPAB1ΔSP; assay: competition; […], buffer not stated; […]; conditions: protein: recombinant; tags: His, ProS2 (pCold-ProS2); blunt

B1: Bsr-d1 promoter probe 5 (dsDNA)
DNA 1: GGTTTTACGACGACGGCAACGGGGACAGAT
DNA 2: ATCTGTCCCCGTTGCCGTCGTCGTAAAACC
binding result (His-MoSPAB1ΔSP [1]): binds

B2: Bsr-d1 promoter probe 4 (dsDNA)
DNA 1: AGCTTGATTAATTAGGTTTTACGACGAC
DNA 2: GTCGTCGTAAAACCTAATTAATCAAGCT
binding result (His-MoSPAB1ΔSP [1]): binds

B3: probe 2 mutant competitor (dsDNA)
DNA 1: ACTAAAGAGAGCTGCTGCTACGTACTA
DNA 2: TAGTACGTAGCAGCAGCTCTCTTTAGT
binding result (His-MoSPAB1ΔSP [2]): no binding

B4: probe 1 mutant competitor (dsDNA)
DNA 1: AATCCCATCAAATCATCCAAAAAAAAAT
DNA 2: ATTTTTTTTTGGATGATTTGATGGGATT
binding result (His-MoSPAB1ΔSP [2]): no binding

B5: Bsr-d1 promoter probe 1 (dsDNA)
DNA 1: AATCCCATCAAATCATCCACCGCTCGCT
DNA 2: AGCGAGCGGTGGATGATTTGATGGGATT
binding result (His-MoSPAB1ΔSP [1]): binds

B6: Bsr-d1 promoter probe 3 (dsDNA)
DNA 1: CTACGTACTATACAGCTTGATTAATTAG
DNA 2: CTAATTAATCAAGCTGTATAGTACGTAG
binding result (His-MoSPAB1ΔSP [1]): binds

B7: Bsr-d1 promoter probe 2 (dsDNA)
DNA 1: ACCGCTCGCTGCTGCTGCTACGTACTA
DNA 2: TAGTACGTAGCAGCAGCAGCGAGCGGT
binding result (His-MoSPAB1ΔSP [1]): binds
